Among the data in publication PMC4082962 are percent decrease of the pull-down relative to TβRIII values, retold here.

This test deals with Cdc42, endogenous in human mammary epithelial cells (human (endogenous in MCF10A and HMEC)) (UniProt P60953). The experiment in a line: pull-down.
Chain of UniProt P60953 (P60953 whole entry): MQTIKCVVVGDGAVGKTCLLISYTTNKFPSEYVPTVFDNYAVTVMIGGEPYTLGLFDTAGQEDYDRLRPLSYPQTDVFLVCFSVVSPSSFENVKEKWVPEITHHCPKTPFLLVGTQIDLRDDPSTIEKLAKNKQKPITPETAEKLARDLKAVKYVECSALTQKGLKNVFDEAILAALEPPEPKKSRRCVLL

“TβRIII-T841A (β-arrestin2 binding deficient) (from UniProt Q03167 21-851) (receptor)”: the percent decrease of the pull-down relative to TβRIII is 70%.

For “TβRIIIΔCyto (TβRIII lacking cytoplasmic domain) (domain or fragment)”, the percent decrease of the pull-down relative to TβRIII was 60%.
